We go through two molecules from patent publication US20030180296A1 (Human Genome Sciences, published 2003).

What is called IC50 is the concentration that inhibits the measured activity by half. A word on the Kd: it is the free concentration of one partner at which half of the binding sites on the other are occupied at equilibrium, for simple one-to-one binding. Lower therefore signals higher affinity. Broadly, the koff is the rate constant with which the complex falls apart. A high value points to fast dissociation.

The target of assay [1] is T1, TR7-Fc fusion protein (human, UniProt O14763 52-184).
T1 construct: also called TR7-Fc receptor; TRAILR2; not shown: Fc region
Nature of the assay: competition ELISA, inhibition of biotinylated TRAIL binding to captured TR7-Fc; first of two lots. On the procedure:
(§1) Goat anti-human Fc is diluted to 0.1 micrograms/ml in coating buffer. An Immulon 4 microplate is coated with 100 microliters per well of the Goat anti-human Fc solution and incubated overnight at 4° C. The coating solution is decanted from the plate, and blocking solution is dispensed at 200 microliters per well. The plate is incubated at room temperature for 1 hour. After the 1 hour incubation period, the blocking solution is decanted from the plate and 1 microgram/mL of TR7-Fc is dispensed at 100 microliters/well and incubated for 2 hours at room temperature. After the incubation, the plate is washed five times manually using a Wheaton manifold.
(§2) Antibodies corresponding to scFvs of the present invention are (previously) prepared in a low binding dilution plate using diluent. The antibodies are prepared in duplicate and are diluted from the stock concentration with 2.5 fold dilutions for the 7 subsequent wells. If a purified form of the antibody is available, the starting concentration is 5 micrograms/mL. The positive control (TR7-Fc) is diluted from 5 micrograms/mL. 100 microliters is transferred into the ELISA plate and pre-incubated for 30 minutes at room temperature. […]
(§3) After the one-hour incubation, the plate is decanted and washed with PBST five times and blotted. […] The plate is immediately read at 450 nm using the spectrometer from Molecular Devices.
A general note: An ELISA detects its analyte on a solid surface through an enzyme-linked reagent.

Assay [2] addresses T1, TR7-Fc fusion protein. In words: competition ELISA, inhibition of biotinylated TRAIL binding to captured TR7-Fc; second of two lots. On the procedure: as §1, §2, §3
The target of assay [3] is T1, TR7-Fc fusion protein. Nature of the assay: SPR (BIAcore 2000), TR7-Fc amine-coupled on CM5 chip, 1:1 Langmuir model, mean of three experiments; first lot. The protocol: (§4) TR7-Fc and TR2-Fc were immobilized on individual flow cells of a BIAcore CM5 sensor chip (BIAcore, Cat # BR-1000-14). Amine coupling (BIAcore, Cat # BR-1000-50) was used to covalently bind each receptor to the dextran matrix on the sensor chip. The optimal pH for this coupling was analyzed using preconcentration experiments ranging from pH 4-7 and was determined to be pH 4.0 based on the slope of the binding. The actual coupling was performed using the manual injection mode. A target level of 200 relative units (RU) was set as the goal for both flow cells. A response of 1000 RU correlates to a change in surface concentration of about 1 ng/mm² for proteins. The molecular weight of the TR7 and TR2 fusion proteins was nearly identical. The concentration of both receptors for immobilization was 5 μg/ml in 10 mM acetate, pH 4.0 (BIAcore, Cat # BR-1003-49). The entire experiment was performed at a flow rate of 5 μL/min. Contact time for the N-ethyl-N′-(3-dimethylaminoprolpyl)carbodiimide hydrochloride/Ethanolamine hydrochloride-NaOH, pH 8.5 (EDC/NHS) injection was 3 minutes. The ethanolamine was injected for 3 minutes.
(§5) Analysis of CM005G08 kinetics was performed using the BIAcore 2000 instrument with the 2000 control software, version 3.1.1. […] The off rate of CM005G08 was determined by washing the complex in the presence of HBS-EP buffer for 10 minutes. […]
On the technique in general: SPR reads the build-up and loss of mass on a sensor chip optically.

For assay [4], the target named is T1, TR7-Fc fusion protein. In words: SPR (BIAcore 2000), TR7-Fc amine-coupled on CM5 chip, 1:1 Langmuir model, mean of three experiments; second lot. On the procedure:
as §4, §5

Assay [5] deals with T1, TR7-Fc fusion protein. In words: competition ELISA, inhibition of biotinylated TRAIL binding to captured TR7-Fc; unlabelled TRAIL as competitor. On the procedure: as §1, §2, §3

B1: whole IgG1 antibody comprising the VH and VL domains of the CM005G08 scFv (antibody, V domains shown)
VH: EVQLVQSGGGVERPGGSLRLSCAASGFTFDDYGMSWVRQAPGKGLEWVSGINWNGGSTGYADSVKGRVTISRDNAKNSLYLQMNSLRAEDTAVYYCAKILGAGRGWYFDLWGKGTTVTVSS
VL: SSELTQDPAVSVALGQTVRITCQGDSLRSYYASWYQQKPGQAPVLVIYGKNNRPSGIPDRFSGSSSGNTASLTITGAQAEDEADYYCNSRDSSGNHVVFGGGTKLTVLG
notes: 3.75 ug/mL = 25 nM implies a whole IgG; also called CM005G08 (IgG1 format); anti-TR7 antibody
B1: the IC50 with TR7-Fc fusion protein [1] worked out at 5.3 nM; with TR7-Fc fusion protein [2] it was 6.89 nM. The Kd with TR7-Fc fusion protein [3] was determined as 0.25 nM; with TR7-Fc fusion protein [4] it was 0.33 nM. The off-rate constant (koff) with TR7-Fc fusion protein [3] is 0.00266 s⁻¹; in the assay with TR7-Fc fusion protein [4] it was 0.00268 s⁻¹.

B2: TRAIL (ligand)
chain: TSEETISTVQEKQQNISPLVRERGPQRVAAHITGTRGRSNTLSSPNSKNEKALGRKINSWESSRSGHSFLSNLHLRNGELVIHEKGFYYIYSQTYFRFQEEIKENTKNDKQMVQYIYKYTSYPDPILLMKSARNSCWSKDAEYGLYSIYQGGIFELKENDRIFVSVTNEHLIDMDHEASFFGAFLVG
notes: also called soluble TRAIL ligand; AIM-I
Regarding B2, in the assay with TR7-Fc fusion protein [5], the IC50 came out at 1.77 nM.
